Results from publication doi:10.1101/2025.07.29.667382 (bioRxiv, 2025).
Groups on a side chain read outwards from the residue. No end group written: not given here. Alexa‑547 = not defined here

T1: Snx3 (recombinant, without fluorescent tag) (yeast, UniProt Q08826 1-162)
T1 sequence: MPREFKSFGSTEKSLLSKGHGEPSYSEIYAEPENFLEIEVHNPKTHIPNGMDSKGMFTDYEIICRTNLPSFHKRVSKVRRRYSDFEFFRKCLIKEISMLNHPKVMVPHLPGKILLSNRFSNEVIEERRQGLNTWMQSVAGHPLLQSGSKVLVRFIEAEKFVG


Assays:
[1] = target: T1, Snx3 (recombinant, without fluorescent …); experiment: coat formation on supported membrane tubes, fluorescence microscopy
[2] = target: Retromer^mClover (Vps26-Vps29-Vps35, carrying mClover on Vps29) (yeast, UniProt P40335;P38759;P34110); experiment: as above
Chain of Retromer^mClover (Vps26-Vps29-Vps35, carrying mClover on Vps29) (P40335 whole entry, chain 1 of 3): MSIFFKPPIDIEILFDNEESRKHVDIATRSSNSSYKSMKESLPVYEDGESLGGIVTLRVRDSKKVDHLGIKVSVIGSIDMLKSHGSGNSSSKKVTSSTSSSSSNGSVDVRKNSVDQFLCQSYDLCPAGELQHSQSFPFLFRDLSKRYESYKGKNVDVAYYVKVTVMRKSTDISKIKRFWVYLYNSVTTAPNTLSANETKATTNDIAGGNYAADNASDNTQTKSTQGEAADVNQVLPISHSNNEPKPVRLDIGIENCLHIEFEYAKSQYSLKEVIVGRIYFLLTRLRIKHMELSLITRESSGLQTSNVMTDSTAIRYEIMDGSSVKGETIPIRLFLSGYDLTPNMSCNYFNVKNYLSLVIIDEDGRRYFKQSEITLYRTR
Chain of Retromer^mClover (Vps26-Vps29-Vps35, carrying mClover on Vps29) (P38759 whole entry, chain 2 of 3): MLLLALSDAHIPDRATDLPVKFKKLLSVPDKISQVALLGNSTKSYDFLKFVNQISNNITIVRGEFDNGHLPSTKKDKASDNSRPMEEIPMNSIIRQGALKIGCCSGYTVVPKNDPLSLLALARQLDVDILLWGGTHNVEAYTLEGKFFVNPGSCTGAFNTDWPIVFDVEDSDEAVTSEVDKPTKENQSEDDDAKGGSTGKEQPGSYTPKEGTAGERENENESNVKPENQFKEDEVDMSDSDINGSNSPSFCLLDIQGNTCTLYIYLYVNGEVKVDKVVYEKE
Chain of Retromer^mClover (Vps26-Vps29-Vps35, carrying mClover on Vps29) (P34110 whole entry, chain 3 of 3): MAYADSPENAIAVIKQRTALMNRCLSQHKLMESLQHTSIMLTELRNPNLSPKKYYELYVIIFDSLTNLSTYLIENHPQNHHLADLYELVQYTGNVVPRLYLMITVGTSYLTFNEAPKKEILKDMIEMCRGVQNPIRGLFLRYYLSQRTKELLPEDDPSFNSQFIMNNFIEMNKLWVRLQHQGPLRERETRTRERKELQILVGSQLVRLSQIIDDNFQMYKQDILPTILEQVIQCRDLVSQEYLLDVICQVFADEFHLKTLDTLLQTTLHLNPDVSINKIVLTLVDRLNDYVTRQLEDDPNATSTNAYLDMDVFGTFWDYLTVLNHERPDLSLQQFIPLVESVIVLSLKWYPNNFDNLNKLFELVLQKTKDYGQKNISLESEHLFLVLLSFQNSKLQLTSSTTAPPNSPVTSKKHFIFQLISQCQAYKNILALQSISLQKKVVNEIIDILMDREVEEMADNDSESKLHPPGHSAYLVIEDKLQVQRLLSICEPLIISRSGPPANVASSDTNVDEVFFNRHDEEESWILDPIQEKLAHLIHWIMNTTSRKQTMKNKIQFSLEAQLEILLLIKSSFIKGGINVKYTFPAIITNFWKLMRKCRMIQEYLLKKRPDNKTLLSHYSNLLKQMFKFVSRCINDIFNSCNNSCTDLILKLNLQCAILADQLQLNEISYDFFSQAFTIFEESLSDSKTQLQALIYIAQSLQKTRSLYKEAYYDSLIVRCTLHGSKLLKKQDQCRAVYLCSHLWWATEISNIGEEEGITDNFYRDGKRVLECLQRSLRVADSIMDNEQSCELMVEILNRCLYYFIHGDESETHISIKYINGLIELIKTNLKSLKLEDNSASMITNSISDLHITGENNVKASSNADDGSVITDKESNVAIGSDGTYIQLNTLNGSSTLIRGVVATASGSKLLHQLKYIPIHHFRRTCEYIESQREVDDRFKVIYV

Row | binding result [1] | binding result [2] | Binder
1 | binds | binds | GGGGGKKIINEEINLDSLGGC([maleimide-Alexa‑547]) (reading uncertain) [Ear1^547 (fluorescent Alexa-547-labelled Ear1 peptide)]
2 |  | binds | SNX-BAR (Vps5-Vps17) (complex) chain 1: MDYEDNLEAPVWDELNHEGDKTQSLVSNSIESIGQISTNEERKDNELLETTASFADKIDLDSAPEWKDPGLSVAGNPQLEEHDNSKADDLINSLAPEQDPIADLKNSTTQFIATRESGGALFTGNANSPLVFDDTIYDANTSPNTSKSISGRRSGKPRILFDSARAQRNSKRNHSLKAKRTTASDDTIKTPFTDPLKKAEKENEFVEEPLDDRNERRENNEGKFTASVEKNILEQVDRPLYNLPQTGANISSPAEVEENSEKFGKTKIGSKVPPTEKAVAFKVEVKDPVKVGELTSIHVEYTVISESSLLELKYAQVSRRYRDFRWLYRQLQNNHWGKVIPPPPEKQSVGSFKENFIENRRFQMESMLKKICQDPVLQKDKDFLLFLTSDDFSSESKKRAFLTGSGAINDSNDLSEVRISEIQLLGAEDAAEVLKNGGIDAESHKGFMSISFSSLPKYNEADEFFIEKKQKIDELEDNLKKLSKSLEMVDTSRNTLAASTEEFSSMVETLASLNVSEPNSELLNNFADVHKSIKSSLERSSLQETLTMGVMLDDYIRSLASVKAIFNQRSKLGYFLVVIENDMNKKHSQLGKLGQNIHSEKFREMRKEFQTLERRYNLTKKQWQAVGDKIKDEFQGFSTDKIREFRNGMEISLEAAIESQKECIELWETFYQTNL chain 2: MTSAVPYDPYDDLDNNPFAEPQEEDSEPAATTTDGSSSMSEERVGTEQTAASVQDNGTANNIQNGLGEEGNATRSKTSNEHNENQQPSQPSERVILPERSDEKKKYTLLAKVTGLERFGSATGKKENPTIIFDCSTNLPTFRKQQYKNVKKSYEEFHQLFKYLNVAIQESFVPTLPSAYTTFGINSEEDRMKVTRNFQLWFNRLSQDPLIIRNEEVAFFIESDFNTYTPINKSKSLASGLKRKTLKQLAPPYDEITELAEFRPLVKSIYVVSQSLQEKLLRVSRNRKMMVQEENAFGQDFVNLDEHNKLYRRYGKILTAVGDIDSIIATMDMATLYDGLEWIVRDAYAVKEALTNRHFIMRNLVQAQQNSKAKQEQARRFRSRRDINPMKIDEALRQLKAAAKNEQVLTLKLQRITSNMIIERKQWISWYEEWIRSSIKEFTLRKIEYERKKLTLLERVRSDIRKADENGGLSRLGRHAVSNNNSDTSQTLKGDSWTGESNRKSQIPINKIAHTEFDDELFTEDDGYNSQDSDTTSLNARHAASLLGMSTK
